{"source": "patent US9592281B2", "about": "“Method for inducing immunity with a peptide fragment from human CAPRIN-1” (Toray Industries, Inc., priority 2008, dated 2017)", "key": {"[1]": {"tested_on": "U-87MG human glioma cells"}, "[2]": {"tested_on": "canine peripheral blood mononuclear cells", "assay": "ELISpot assay of IFNγ using peripheral blood mononuclear cells of administered dogs", "type": "cell-based, dog", "details": "5×10^5 cells/well, restimulated with the administered polypeptide 24 hours, no spots before administration"}, "[3]": {"tested_on": "tumor of cancer-bearing dog (breast cancer)", "assay": "Antitumor evaluation of recombinant protein in cancer-bearing dog", "type": "in vivo", "details": "dog with breast cancer; for tumor size: tumor about 86 mm^3 at administration, 100 μg with Freund's incomplete adjuvant, 3 times to regional lymph node", "description": "A cancer-bearing dog (breast cancer) having a tumor on the epidermis was subjected to evaluation of the antitumor effects of the recombinant protein purified above.\nThe recombinant polypeptide having the amino acid sequence shown by SEQ ID NO: 6 purified in the above-described manner (100 μg, 0.5 ml) was mixed with the equivalent amount of the Freund's incomplete adjuvant (Wako Pure Chemical Industries, Ltd.) to prepare a cancer therapeutic agent. The resulting agent was administered 3 times in total to the regional lymph node in the vicinity of the tumor, as an initial-administration, and 3 days and 7 days thereafter.\nAlso, 100 μg of canine interleukin 12 was administered together with the agent subcutaneously.\nFurther, a mixture of 0.5 ml of the recombinant polypeptide having the amino acid sequence shown by SEQ ID NO: 8 and 0.5 ml of the Freund's incomplete adjuvant was administered to another dog having breast cancer 3 times in total in the same manner as described above. Also, 100 μg of canine interleukin 12 was administered together with the agent subcutaneously."}, "[4]": {"tested_on": "human breast cancer cell line, MDA-MB-231V", "assay": "Flow cytometry reactivity of monoclonal antibodies with breast cancer cell surface", "type": "cell-based", "details": "10^6 MDA-MB-231V cells; control with medium instead of antibody", "description": "Subsequently, monoclonal antibodies having reactivity with the surfaces of the breast cancer cells expressing CAPRIN-1 were selected from among the above monoclonal antibodies. Specifically, 10^6 cells of human breast cancer cell line, MDA-MB-231V, were centrifuged in a 1.5-ml microcentrifuge tube, 100 μl of the hybridoma supernatants prepared above was added thereto, and the resultants were allowed to stand on ice for 1 hour. After the plate was washed with PBS, the FITC-labeled goat anti-mouse IgG antibody (Invitrogen) diluted 500-fold with PBS containing 0.1% fetal bovine serum was added, and the plate was allowed to stand on ice for 1 hour. After the plate was washed with PBS, fluorescence intensity was measured using the FACSCalibur (Becton Dickinson). Separately, as a control, the same procedure was carried out except for adding a medium instead of the antibodies. […] The sequence of the heavy-chain variable region of one of such monoclonal antibodies is shown by SEQ ID NO: 78 and that of the light-chain variable region thereof is shown by SEQ ID NO: 79."}, "[5]": {"details": "10 days after the administration"}, "[6]": {"details": "30 days after the administration"}}, "note": "Residues, ends and D or L forms follow the SMILES beside them."}
{"molecule": "CSCC[C@H](NC(=O)[C@@H](NC(=O)[C@H](CCC(N)=O)NC(=O)[C@H](CS)NC(=O)[C@H](CO)NC(=O)[C@H](Cc1ccc(O)cc1)NC(=O)[C@H](CO)NC(=O)[C@@H](N)CCCNC(=N)N)C(C)C)C(=O)N[C@@H](Cc1c[nH]cn1)C(=O)N[C@@H](CCC(=O)O)C(=O)O", "note": "[SEQ ID NO: 77] (H-RSYSCQVMHE-OH)", "values": [{"measurement": "cytotoxic activity of peptide-stimulated CD8+ T cells against JTK-LCL cells", "setting": "HLA-A24+ JTK-LCL cells", "value": "did not exhibit cytotoxicity"}, {"measurement": "cytotoxic activity of peptide-stimulated CD8+ T cells against U-87MG cells", "setting": "[1]", "value": "did not show cytotoxic activity"}]}
{"molecule": "SEQ ID NO: 8: recombinant polypeptide having the amino acid sequence shown by SEQ ID NO: 8 (canine CAPRIN-1), expressed in E. coli (protein, listed as Canis familiaris) MPSATSLSGSGSKSSGPPPPSGSSGSEAAAAAGAAGAAGAGAAAPASQHPATGTGAVQTEAMKQILGVIDKKLRNLEKKKGKLDDYQERMNKGERLNQDQLDAVSKYQEVTNNLEFAKELQRSFMALSQDIQKTIKKTARREQLMREEAEQKRLKTVLELQYVLDKLGDDEVRTDLKQGLNGVPILSEEELSLLDEFYKLADPERDMSLRLNEQYEHASIHLWDLLEGKEKSVCGTTYKALKEIVERVFQSNYFDSTHNHQNGLCEEEEAASAPTVEDQVAEAEPEPAEEYTEQSEVESTEYVNRQFMAETQFSSGEKEQVDEWTVETVEVVNSLQQQPQAASPSVPEPHSLTPVAQADPLVRRQRVQDLMAQMQGPYNFIQDSMLDFENQTLDPAIVSAQPMNPTQNMDMPQLVCPPVHSESRLAQPNQVPVQPEATQVPLVSSTSEGYTASQPLYQPSHATEQRPQKEPIDQIQATISLNTDQTTASSSLPAASQPQVFQAGTSKPLHSSGINVNAAPFQSMQTVFNMNAPVPPVNEPETLKQQNQYQASYNQSFSSQPHQVEQTDLQQEQLQTVVGTYHGSQDQPHQVTGNHQQPPQQNTGFPRSSQPYYNSRGVSRGGSRGARGLMNGYRGPANGFRGGYDGYRPSFSNTPNSGYTQSQFSAPRDYSGYQRDGYQQNFKRGSGQSGPRGAPRGRGGPPRPNRGMPQMNTQQVN", "values": [{"measurement": "number of IFNγ spots detected in peripheral blood mononuclear cells", "setting": "[2]; [5]", "value": 32, "unit": "spots"}, {"measurement": "number of IFNγ spots detected in peripheral blood mononuclear cells", "setting": "[2]; [6]", "value": 117, "unit": "spots"}, {"measurement": "tumor completely regressed, time after the initial administration", "setting": "[3]; with Freund's incomplete adjuvant, 3 times, plus 100 μg canine interleukin 12 subcutaneously, tumor at administration about 123 mm^3 (SEQ ID NO: 2), about 96 mm^3 (SEQ ID NO: 8)", "value": 27, "unit": "days"}]}
{"molecule": "SEQ ID NO: 6: recombinant polypeptide having the amino acid sequence shown by SEQ ID NO: 6 (canine CAPRIN-1), expressed in E. coli (protein, listed as Canis familiaris) MALSQDIQKTIKKTARREQLMREEAEQKRLKTVLELQYVLDKLGDDEVRTDLKQGLNGVPILSEEELSLLDEFYKLADPERDMSLRLNEQYEHASIHLWDLLEGKEKSVCGTTYKALKEIVERVFQSNYFDSTHNHQNGLCEEEEAASAPTVEDQVAEAEPEPAEEYTEQSEVESTEYVNRQFMAETQFSSGEKEQVDEWTVETVEVVNSLQQQPQAASPSVPEPHSLTPVAQADPLVRRQRVQDLMAQMQGPYNFIQDSMLDFENQTLDPAIVSAQPMNPTQNMDMPQLVCPPVHSESRLAQPNQVPVQPEATQVPLVSSTSEGYTASQPLYQPSHATEQRPQKEPIDQIQATISLNTDQTTASSSLPAASQPQVFQAGTSKPLHSSGINVNAAPFQSMQTVFNMNAPVPPVNEPETLKQQNQYQASYNQSFSSQPHQVEQTEGCRK", "values": [{"measurement": "number of IFNγ spots detected in peripheral blood mononuclear cells", "setting": "[2]; [5]", "value": 13, "unit": "spots"}, {"measurement": "number of IFNγ spots detected in peripheral blood mononuclear cells", "setting": "[2]; [6]", "value": 82, "unit": "spots"}, {"measurement": "tumor size", "setting": "[3]; 10 days after the initial administration", "value": 55, "unit": "mm^3"}, {"measurement": "tumor size", "setting": "[3]; 20 days after the initial administration", "value": 30, "unit": "mm^3"}, {"measurement": "tumor size", "setting": "[3]; 30 days after the initial administration", "value": 20, "unit": "mm^3"}]}
{"molecule": "monoclonal antibody against CAPRIN-1 having the heavy-chain variable region of SEQ ID NO: 78 and the light-chain variable region of SEQ ID NO: 79: mouse monoclonal antibody against human CAPRIN-1 … (antibody, listed as Mus musculus, V domains shown, mouse monoclonal antibody against human CAPRIN-1 reacting with breast cancer cell surfaces) VH: PRASLGVSETLLCTSGFTFTDYYMSWVRQPPGKALEWLGFIRNKANGYTTEYSASVKGRFTISRDNSQSILYLQMNTLRAEDSATYYCARANWAFDYWGQGTTVTVSSK VL: SGDRVSLSCRASQSISNYLHWYQQKSHESPRLLIKYASQSISGIPSRFSGSGSGTDFTLSINSVETEDFGMYFCQQSNSWPYTFGGGTKLEIKQ", "values": [{"measurement": "reactivity with breast cancer cell surface (fluorescence intensity, FACS)", "setting": "[4]", "value": "reacts with the cancer cell surface"}]}
